By Kd is commonly meant the concentration at which binding is half-saturated.

For one sequence, Kd and binding signal (% positive cells) results are on record in publication PMC6017093.

In series [1] the target is T1, CD20 (B-lymphocyte antigen), expressed on HEK293T cells (human) (UniProt P11836).
T1 sequence: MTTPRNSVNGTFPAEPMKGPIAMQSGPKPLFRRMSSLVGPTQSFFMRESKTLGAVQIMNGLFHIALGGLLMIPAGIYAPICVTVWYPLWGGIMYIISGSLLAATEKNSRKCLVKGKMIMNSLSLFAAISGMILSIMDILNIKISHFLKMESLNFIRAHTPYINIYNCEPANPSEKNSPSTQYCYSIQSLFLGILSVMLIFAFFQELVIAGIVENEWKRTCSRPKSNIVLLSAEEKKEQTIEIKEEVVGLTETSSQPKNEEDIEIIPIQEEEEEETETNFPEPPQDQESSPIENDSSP
Description: flow cytometry (cell binding). The settings on record: no shift on untransfected HEK293T, DPBS with 4.5 g/L glucose, 5 mM MgCl2, 0.1 mg/mL yeast tRNA, 1 g/L BSA (10% FBS in flow assay), on ice 30 min, aptamer heated 95 C 5 min and snap-cooled, pH …. On the technique in general: Flow cytometry measures light scatter and fluorescence of single cells or particles in a stream.

For series [2], the target named is T2, CD20 on Pre-B ALL bone marrow cells (human) (UniProt P11836).
T2 sequence: T1 sequence
Briefly: flow cytometry (cell binding). The note with it: T-ALL (CD20-low) control 1.5%, DPBS with 4.5 g/L glucose, 5 mM MgCl2, 0.1 mg/mL yeast tRNA, 1 g/L BSA (10% FBS in flow assay), on ice 30 min, aptamer heated 95 C 5 min and snap-cooled, pH ….

Regarding “ATACCAGCTTATTCAATTGGAATAAGGGGGTATTACTGTCTGGTAAACAAACGCTATGCGAGGGGATTCAAGATAGTAAGTGCAATCT [AP-1]”, the Kd in series [1] came to 96.9 nM. The same sequence registered a binding signal (% positive cells) in series [2] of 71.4.
